T1: recombinant fusion protein comprised of the C-terminal extracellular domain of CD72 (aa 117-359) fused to a … (human, UniProt P21854 117-359, biotinylated (on the Fc domain; site not stated))
T1 construct: range 117-359; Expressed in mammalian cells; CD72 is a type II protein, so the Fc may be N-terminal; also called CD72-Fc; CD72-ECD-Fc; not shown: human Fc domain
T1 sequence (looked up): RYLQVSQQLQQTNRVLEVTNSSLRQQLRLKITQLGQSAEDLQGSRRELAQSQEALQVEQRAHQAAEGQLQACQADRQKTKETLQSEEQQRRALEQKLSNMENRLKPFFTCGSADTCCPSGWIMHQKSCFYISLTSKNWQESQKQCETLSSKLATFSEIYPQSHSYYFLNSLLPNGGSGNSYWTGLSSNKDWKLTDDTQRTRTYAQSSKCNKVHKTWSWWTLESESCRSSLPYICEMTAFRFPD

T2: recombinant fusion protein comprised of the C-terminal extracellular domain of CD72 (aa 117-359) fused to a … (human, UniProt P21854 117-359, biotinylated (on the Fc domain; site not stated))
T2 chain: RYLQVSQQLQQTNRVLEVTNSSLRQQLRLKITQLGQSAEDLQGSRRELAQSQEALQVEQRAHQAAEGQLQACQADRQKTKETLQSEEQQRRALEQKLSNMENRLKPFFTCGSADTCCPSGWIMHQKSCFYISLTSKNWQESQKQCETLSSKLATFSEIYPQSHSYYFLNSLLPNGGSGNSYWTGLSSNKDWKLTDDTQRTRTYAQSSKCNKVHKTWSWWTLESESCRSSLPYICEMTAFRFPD


What was measured:
[1] = biological target: T1, recombinant fusion protein comprised of …; experiment: on-yeast affinity measurement, flow cytometry, titration of CD72-Fc
Description: FIG. 4a-e: Isolation of high-affinity CD72 nanobodies with yeast display (a) Schematic of workflow for in vitro anti-CD72 nanobody selection using yeast display. (b) Structure models of the recombinant Fc-fusion proteins used to perform yeast display selections. The Fc protein on the left was used to negatively select potential off-target nanobodies while the CD72-Fc protein (CD72 extracellular domain fused to a human Fc domain) was used to perform positive selection steps to isolate CD72-specific nanobodies (c) Schematic displaying the nanobody yeast display selection strategy for each MACS and FACS selection round to enrich for CD72-specific nanobody binders. Two rounds of MACS followed by four rounds of FACS with decreasing concentration of CD72 antigen produced high affinity anti-CD72 nanobodies. (d) On-yeast binding of recombinant CD72-Fc fusion protein for CD72-selected nanobodies Nb.B5 (nanobody sequence SEQ ID NO:2) and Nb.C2 (nanobody sequence SEQ ID NO:1) expressed on yeast to determine estimated binding affinities. Kd determined by curve fitting using non-linear least squares regression. (e) Flow cytometry plots of yeast clone Nb.C2 binding to 10 nM CD72-ECD-Fc protein (left) or 10 nM Fc protein (right). […]

[2] = biological target: T2, recombinant fusion protein comprised of …; experiment: on-yeast binding (yeast display titration)

| Binder | binding result [1] | Kd [2] [nM] |
| --- | --- | --- |
| Nb.B5 (VHH) VHH: QVQLQESGGGLVQAGGSLRLSCAASGTIFPVDYMGWYRQAPGKERELVAGINYGSNTYYADSVKGRFTISRDNAKNTVYLQMNSLKPEDTAVYYCAAWQPEGYAVDFYHPYWGQGTQVTVSS | binds | 1 |
| Nb.C2 (VHH, display was detected with anti-HA-FITC; also called yeast clone Nb.C2) VHH: QVQLQESGGGLVQAGGSLRLSCAASGTIFDWYSMGWYRQAPGKERELVAGIDTGANTYYADSVKGRFTISRDNAKNTVYLQMNSLKPEDTAVYYCAAHDDGDPWHVYWGQGTQVTVSS | binds | 1.5 |

— US20240299449A1 (University of California, published 2024)
